Experiments:
Test in all cases: sandwich ELISA (rabbit anti-L1 capture)
HPV58L1 = molecular target: T1, HPV58L1 (human papillomavirus type 58, UniProt P26535 27-524)
T1 sequence: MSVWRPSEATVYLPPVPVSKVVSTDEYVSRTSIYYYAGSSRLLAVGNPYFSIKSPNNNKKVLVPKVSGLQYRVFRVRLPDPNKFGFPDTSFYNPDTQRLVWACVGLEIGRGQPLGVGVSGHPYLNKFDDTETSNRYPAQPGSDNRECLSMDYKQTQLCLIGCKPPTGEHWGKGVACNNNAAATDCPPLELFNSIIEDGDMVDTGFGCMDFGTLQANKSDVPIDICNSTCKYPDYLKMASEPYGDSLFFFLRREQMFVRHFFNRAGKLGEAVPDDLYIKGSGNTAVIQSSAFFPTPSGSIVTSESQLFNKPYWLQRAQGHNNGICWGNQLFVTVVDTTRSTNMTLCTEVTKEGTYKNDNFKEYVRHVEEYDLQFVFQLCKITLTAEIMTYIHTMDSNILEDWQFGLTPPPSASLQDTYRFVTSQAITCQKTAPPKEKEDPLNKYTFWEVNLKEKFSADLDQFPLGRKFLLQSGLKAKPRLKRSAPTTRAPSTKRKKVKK

HPV56L1 = molecular target: T2, HPV56L1 (human papillomavirus type 56, UniProt P36743 36-534)
T2 sequence: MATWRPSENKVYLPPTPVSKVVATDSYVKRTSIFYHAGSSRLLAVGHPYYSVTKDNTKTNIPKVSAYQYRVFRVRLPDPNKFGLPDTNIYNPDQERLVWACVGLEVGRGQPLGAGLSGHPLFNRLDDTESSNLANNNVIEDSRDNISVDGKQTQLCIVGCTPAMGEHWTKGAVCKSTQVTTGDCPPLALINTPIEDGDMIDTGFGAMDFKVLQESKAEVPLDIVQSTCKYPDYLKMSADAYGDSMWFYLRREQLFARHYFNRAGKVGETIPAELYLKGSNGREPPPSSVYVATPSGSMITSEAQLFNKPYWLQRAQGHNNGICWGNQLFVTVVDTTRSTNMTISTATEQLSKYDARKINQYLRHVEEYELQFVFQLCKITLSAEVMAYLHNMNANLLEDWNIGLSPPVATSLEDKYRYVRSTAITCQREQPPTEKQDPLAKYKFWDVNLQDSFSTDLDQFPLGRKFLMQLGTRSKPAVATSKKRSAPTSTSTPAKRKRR

HPV18L1 = molecular target: T3, HPV18L1 (human papillomavirus type 18, UniProt P06794 62-568)
T3 sequence: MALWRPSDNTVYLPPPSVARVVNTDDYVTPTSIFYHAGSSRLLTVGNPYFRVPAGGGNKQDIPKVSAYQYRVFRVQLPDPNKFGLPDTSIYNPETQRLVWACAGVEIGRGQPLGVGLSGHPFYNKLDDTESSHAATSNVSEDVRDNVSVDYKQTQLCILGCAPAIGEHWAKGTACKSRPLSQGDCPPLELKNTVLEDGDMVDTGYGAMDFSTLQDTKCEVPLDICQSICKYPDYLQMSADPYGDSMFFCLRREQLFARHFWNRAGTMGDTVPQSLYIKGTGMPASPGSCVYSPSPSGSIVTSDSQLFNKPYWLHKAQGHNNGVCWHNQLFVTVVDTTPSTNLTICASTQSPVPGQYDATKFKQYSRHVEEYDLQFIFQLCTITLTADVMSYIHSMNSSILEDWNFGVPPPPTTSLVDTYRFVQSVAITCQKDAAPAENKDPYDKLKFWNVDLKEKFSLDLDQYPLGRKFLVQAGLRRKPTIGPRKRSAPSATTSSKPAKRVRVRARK

HPV35L1 = molecular target: T4, HPV35L1 (human papillomavirus type 35, UniProt P27232 1-502)
T4 sequence: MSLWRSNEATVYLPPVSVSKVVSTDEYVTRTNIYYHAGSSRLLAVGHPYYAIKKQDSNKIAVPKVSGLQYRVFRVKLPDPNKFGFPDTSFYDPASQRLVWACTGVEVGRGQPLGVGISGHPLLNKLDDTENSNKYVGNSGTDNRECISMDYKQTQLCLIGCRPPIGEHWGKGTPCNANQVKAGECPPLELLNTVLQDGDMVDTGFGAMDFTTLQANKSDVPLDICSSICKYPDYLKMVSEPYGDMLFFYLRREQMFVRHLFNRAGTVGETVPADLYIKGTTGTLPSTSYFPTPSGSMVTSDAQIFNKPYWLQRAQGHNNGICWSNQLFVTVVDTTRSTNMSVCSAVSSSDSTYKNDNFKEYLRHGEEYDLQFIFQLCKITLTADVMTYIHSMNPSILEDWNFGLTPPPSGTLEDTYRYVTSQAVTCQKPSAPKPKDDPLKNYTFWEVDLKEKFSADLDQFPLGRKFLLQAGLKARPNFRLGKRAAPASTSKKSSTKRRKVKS

HPV39L1 = molecular target: T5, HPV39L1 (human papillomavirus type 39, UniProt P24838 1-505)
T5 sequence: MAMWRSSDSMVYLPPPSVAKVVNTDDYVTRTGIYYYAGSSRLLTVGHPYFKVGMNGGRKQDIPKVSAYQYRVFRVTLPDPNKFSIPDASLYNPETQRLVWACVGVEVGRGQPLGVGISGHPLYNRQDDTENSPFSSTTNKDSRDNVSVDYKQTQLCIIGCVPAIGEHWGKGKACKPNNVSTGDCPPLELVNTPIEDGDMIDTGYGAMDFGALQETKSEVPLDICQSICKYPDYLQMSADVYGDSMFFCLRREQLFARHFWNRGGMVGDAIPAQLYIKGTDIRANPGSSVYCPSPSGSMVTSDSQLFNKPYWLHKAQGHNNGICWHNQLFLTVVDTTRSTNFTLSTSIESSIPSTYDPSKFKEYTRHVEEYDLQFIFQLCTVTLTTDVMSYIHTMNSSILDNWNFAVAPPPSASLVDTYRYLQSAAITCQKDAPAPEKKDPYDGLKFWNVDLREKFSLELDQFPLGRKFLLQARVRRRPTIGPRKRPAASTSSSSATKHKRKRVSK

B1: HPV 59编号为30单克隆抗体 (antibody, V domains shown)
VH: QIQLVQSGPELKKPGETVKISCKASGYTFTDYSMHWVKQAPGKGLKWMGWINTETGEPTYADDFKGRFAFSLETSASTAYLQINNLKIEDTATYFCTRDGYVWYFDVWGAGTTVTVSS
VL: QIVLSQSPAILSASPGEKVTMTCRASSSVNYMHWYQQKPGSSPKPWIYATSNLASGVPARFSGSGSGTSYSLTISRVEAEDAATYYCQQWSSNPIFTFGSGTKLEIK
notes: Mouse hybridoma antibody tested as cell supernatant; also called 59H30
B1: no binding (tested: 原液40μg/ml; 细胞上清1:100) (HPV58L1); no binding (tested: 原液40μg/ml; 细胞上清1:100) (HPV56L1); no binding (tested: 原液40μg/ml; 细胞上清1:100) (HPV18L1). B1: no binding (tested: 原液40μg/ml; 细胞上清1:100) (HPV35L1); no binding (tested: 原液40μg/ml; 细胞上清1:100) (HPV39L1).

From patent CN117736312A (SHANGHAI BOVAX BIOLOGICAL SCIENCE & TECH CO LTD, dated 2024)
